T1: cynomolgus CD73 on transfected CHO cells (cynomolgus, UniProt P21589 27-549 (human entry))
T1 construct: also called CHO-cynoCD73; CHO-Cynomolgus CD73 transfectants
T1 chain: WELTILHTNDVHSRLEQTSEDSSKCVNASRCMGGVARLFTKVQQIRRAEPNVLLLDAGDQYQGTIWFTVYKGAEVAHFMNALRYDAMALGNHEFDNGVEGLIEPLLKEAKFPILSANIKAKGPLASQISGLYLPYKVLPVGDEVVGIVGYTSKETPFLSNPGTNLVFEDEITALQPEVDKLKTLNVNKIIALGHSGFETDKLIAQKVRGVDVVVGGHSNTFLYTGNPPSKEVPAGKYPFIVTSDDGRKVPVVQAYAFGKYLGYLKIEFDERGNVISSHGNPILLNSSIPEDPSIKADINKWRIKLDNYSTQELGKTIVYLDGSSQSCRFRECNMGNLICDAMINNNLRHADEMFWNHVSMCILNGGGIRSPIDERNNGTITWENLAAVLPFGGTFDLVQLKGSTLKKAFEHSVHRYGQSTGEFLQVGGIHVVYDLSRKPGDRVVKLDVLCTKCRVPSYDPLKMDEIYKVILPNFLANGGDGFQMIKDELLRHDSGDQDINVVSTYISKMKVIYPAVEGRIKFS

T2: human CD73 on cells (human, UniProt P21589 27-549)
T2 construct: Endogenous protein; also called endogenous CD73 on Calu6, NCI-H292, SK-MEL-24, human B and T cells
T2 sequence: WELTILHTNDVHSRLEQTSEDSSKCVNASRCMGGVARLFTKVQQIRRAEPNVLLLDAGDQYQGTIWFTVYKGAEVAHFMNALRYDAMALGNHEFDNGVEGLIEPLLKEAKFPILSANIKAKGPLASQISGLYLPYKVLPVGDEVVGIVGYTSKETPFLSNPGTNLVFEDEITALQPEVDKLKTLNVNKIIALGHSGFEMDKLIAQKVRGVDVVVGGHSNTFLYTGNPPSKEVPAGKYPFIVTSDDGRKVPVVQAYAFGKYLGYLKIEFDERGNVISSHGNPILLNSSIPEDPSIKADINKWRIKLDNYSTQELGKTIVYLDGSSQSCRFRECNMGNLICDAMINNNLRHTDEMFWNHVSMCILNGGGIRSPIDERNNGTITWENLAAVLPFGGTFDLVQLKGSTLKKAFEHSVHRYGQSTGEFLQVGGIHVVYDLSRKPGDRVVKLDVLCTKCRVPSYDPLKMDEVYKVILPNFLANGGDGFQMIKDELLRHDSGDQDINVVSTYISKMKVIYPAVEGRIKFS

T3: cyno CD73, Sino Biological Inc Cat#90192-C08H, bound to his-tag magnet beads (cynomolgus, UniProt P21589 27-547 (human entry))
T3 chain: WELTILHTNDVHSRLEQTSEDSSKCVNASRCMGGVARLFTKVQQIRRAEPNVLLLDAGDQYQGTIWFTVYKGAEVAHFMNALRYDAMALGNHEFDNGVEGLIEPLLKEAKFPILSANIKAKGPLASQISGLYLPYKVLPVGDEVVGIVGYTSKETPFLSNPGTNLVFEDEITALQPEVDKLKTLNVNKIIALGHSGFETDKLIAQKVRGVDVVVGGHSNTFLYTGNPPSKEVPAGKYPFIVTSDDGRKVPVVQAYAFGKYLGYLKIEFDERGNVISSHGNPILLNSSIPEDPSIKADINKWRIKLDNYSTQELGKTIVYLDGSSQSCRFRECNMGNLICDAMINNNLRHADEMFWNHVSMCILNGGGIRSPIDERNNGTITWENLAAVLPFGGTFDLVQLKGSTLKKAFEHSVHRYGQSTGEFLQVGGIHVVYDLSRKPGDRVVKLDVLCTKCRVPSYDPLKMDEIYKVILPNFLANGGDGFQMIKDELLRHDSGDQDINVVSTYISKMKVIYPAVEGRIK

T4: rhCD73 bound to his-tag magnet beads (human, UniProt P21589 27-547, limits assumed)
T4 sequence: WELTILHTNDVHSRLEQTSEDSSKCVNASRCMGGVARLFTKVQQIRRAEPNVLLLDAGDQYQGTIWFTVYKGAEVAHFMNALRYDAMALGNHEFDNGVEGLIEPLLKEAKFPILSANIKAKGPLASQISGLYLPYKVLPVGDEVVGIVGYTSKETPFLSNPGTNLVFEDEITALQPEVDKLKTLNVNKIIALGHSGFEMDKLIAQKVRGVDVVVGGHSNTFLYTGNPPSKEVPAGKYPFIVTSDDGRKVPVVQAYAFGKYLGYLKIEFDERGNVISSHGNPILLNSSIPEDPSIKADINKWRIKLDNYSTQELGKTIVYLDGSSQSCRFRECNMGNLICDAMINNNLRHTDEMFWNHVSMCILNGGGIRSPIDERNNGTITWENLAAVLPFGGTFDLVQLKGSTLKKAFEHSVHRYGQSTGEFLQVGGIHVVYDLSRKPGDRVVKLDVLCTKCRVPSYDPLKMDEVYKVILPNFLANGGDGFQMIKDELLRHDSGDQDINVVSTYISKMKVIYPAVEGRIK


Experiments:
[1] = target: T1, cynomolgus CD73 on transfected CHO cells; experiment: flow cytometry, CHO-cynoCD73 cells
Protocol: (§1) Titration binding curves were produced with CD73 antibodies on Calu6 (CD73 endogenous expressors; human pulmonary adenocarcinoma cell line), DMS114 (CD73 negative; human small cell lung cancer cell line), CHO-cynoCD73 (cynoCD73-transfected) and CHO-K1 (cynoCD73 negative), cells using Alexa Fluor® 647 Goat Anti-Human IgG (H+L) as a secondary antibody, Invitrogen Cat#A-21445, using the following method: 100000 cells were plated in 100 uL PBS+2% FBS per well and blocked for 20 min. Using a U-bottom 96-deep well plate, volumes of antibody and PBS+2% FBS were combined as dictated by Table 12 below.
(§2) An 8-point serial dilution was performed by diluting a sixth of the volume (90 uL) into […], PBS+2% FBS. The cell plate was spun down for 5 minutes at 1500 rpm. 100 uL of diluted antibody was added per well of the plate. 100 uL PBS+2% FBS were added to all other wells. […] The plates were spun down at 1500 rpm for 5 min and washed in 200 uL PBS+2% FBS per well. The plates were washed again, resuspended in 200 uL 2% FBS in PBS per well and the samples were run.

human CD73 on cells [2] = target: T2, human CD73 on cells; experiment: flow cytometry, Calu6 cells
Protocol: as §1, §2

human CD73 on cells [3] = target: T2, human CD73 on cells; experiment: cell-based or functional assay
[4] = target: T3, cyno CD73, Sino Biological Inc …; experiment: cell-based or functional assay
[5] = target: T4, rhCD73 bound to his-tag magnet beads; experiment: cell-based or functional assay

Row | Binder | EC50 [1] [nM] | EC50 (human CD73 on cells [2]) [nM] | EC50 Calu6 inhibition (human CD73 on cells [3]) [nM] | EC50 (nM), enzymatic inhibition of cyno CD73 (bead-bound) [4] [nM] | EC50 (nM), inhibition of bead-bound human CD73 enzymatic activity [5] [nM]
1 | CD73.10-IgG2-C219S-IgG1.1f (antibody, also called CD73.10-IgG2CS-IgG1.1f; CD73.10-IgG2S-IgG1.1f) heavy: QVQLVESGGGVVQPGRSLRLSCAASGFTFSNYGMHWVRQAPGKGLEWVAVIWYDESNKYYPDSVKGRFTISRDNSKNTLYLQMNSLRAEDTAVYYCARGGSSWYPDSFDIWGQGTMVTVSSASTKGPSVFPLAPCSRSTSESTAALGCLVKDYFPEPVTVSWNSGALTSGVHTFPAVLQSSGLYSLSSVVTVPSSNFGTQTYTCNVDHKPSNTKVDKTVERKSCVECPPCPAPPVAGPSVFLFPPKPKDTLMISRTPEVTCVVVDVSHEDPEVKFNWYVDGVEVHNAKTKPREEQYNSTYRVVSVLTVLHQDWLNGKEYKCKVSNKALPSSIEKTISKAKGQPREPQVYTLPPSREEMTKNQVSLTCLVKGFYPSDIAVEWESNGQPENNYKTTPPVLDSDGSFFLYSKLTVDKSRWQQGNVFSCSVMHEALHNHYTQKSLSLSPG light: not shown | 1.27 | 0.85 | 0.77 | 9.94 | 4.84
2 | CD73.10-IgG2-C219S (antibody, also called CD73.10-IgG2CS; CD73.10-IgG2S) heavy: QVQLVESGGGVVQPGRSLRLSCAASGFTFSNYGMHWVRQAPGKGLEWVAVIWYDESNKYYPDSVKGRFTISRDNSKNTLYLQMNSLRAEDTAVYYCARGGSSWYPDSFDIWGQGTMVTVSSASTKGPSVFPLAPCSRSTSESTAALGCLVKDYFPEPVTVSWNSGALTSGVHTFPAVLQSSGLYSLSSVVTVPSSNFGTQTYTCNVDHKPSNTKVDKTVERKSCVECPPCPAPPVAGPSVFLFPPKPKDTLMISRTPEVTCVVVDVSHEDPEVQFNWYVDGVEVHNAKTKPREEQFNSTFRVVSVLTVVHQDWLNGKEYKCKVSNKGLPAPIEKTISKTKGQPREPQVYTLPPSREEMTKNQVSLTCLVKGFYPSDIAVEWESNGQPENNYKTTPPMLDSDGSFFLYSKLTVDKSRWQQGNVFSCSVMHEALHNHYTQKSLSLSPG light: not shown | 1.24 | 0.85 | 0.84 | 8.78 | 7.54

— patent US20190284293A1 (Bristol-Myers Squibb, published 2019)
